Test results: patent US20220160843A1 (priority 2019, published 2022)

How the values were obtained:
P. aeruginosa [1] = experiment: Minimal inhibitory concentration (MIC), modified CLSI broth microdilution in CAA or CAA/HuS; assay type: cell-based, Pseudomonas aeruginosa
[2] = tested on: P. aeruginosa strain ATCC 17647; experiment: Minimal Biofilm Eradicating Concentration (MBEC), Calgary Biofilm Device; assay type: cell-based, Pseudomonas aeruginosa; details: 24 h biofilm, 24 h treatment; minimum concentration removing >95% of biofilm biomass (crystal violet)
Source text: All samples were examined in triplicate.

human erythrocytes = assay type: cell-based
Method: The hemolytic activity of the GN lysins was measured as the amount of hemoglobin released by the lysis of human erythrocytes (30). Briefly, 3 ml of fresh human blood cells (hRBCs) obtained from pooled healthy donors (BioreclamationIVT) in a polycarbonate tube containing heparin was centrifuged at 1,000×g for 5 min at 4° C. The erythrocytes obtained were washed three times with phosphate-buffered saline (PBS) solution (pH 7.2) and resuspended in […]. […] Intact erythrocytes were pelleted by centrifugation at 1,000×g for 5 min at 4° C., and the supernatant was transferred to a new 96-well plate. The release of hemoglobin was monitored by measuring the absorbance at 570 nm.

P. aeruginosa [3] = experiment: Time-kill assay of GN lysin activity; assay type: cell-based, Pseudomonas aeruginosa; details: for Log10 CFU/mL T = 3 hr / Log10 CFU/mL T = l hr: lysin 10 μg/mL, T = 0 7.8; for Log10 CFU/mL T = 3 hr: buffer control 7.2, limit of detection 3.7; for Log10 CFU/mL T = l hr: buffer control 7.7
Method: All treatments were incubated at 37° C. with aeration.

[4] = tested on: carbapenem-resistant clinical strain, WC-452; experiment: Checkerboard assay to examine synergy with antibiotics in CAA/HuS; assay type: cell-based, P. aeruginosa
[5] = tested on: carbapenem-resistant P. aeruginosa strains; experiment: Resensitization of carbapenem-resistant clinical strains using carbapenems in combination with lysins; assay type: cell-based
Method: The checkerboard assays is based on a modification of the CLSI method for MIC determination by broth microdilution (26, 29). Checkerboards were constructed by first preparing columns of a 96-well polypropylene microtiter plate, in which each well had the same amount of antibiotic diluted 2-fold along the horizontal axis. […] Summation fractional inhibitory concentrations (ΣFICs) were calculated for each drug and the minimum ΣFIC value (ΣFICmin) was used to determine synergy. ΣFICs were calculated as follows: ΣFIC=FIC A+FIC B, where FIC A is the MIC of each antibiotic in the combination/MIC of each antibiotic alone, and FIC B is the MIC of each GN lysin in the combination/MIC of each GN lysin alone. The combination is considered synergistic when the ΣFIC is ≤0.5, strongly additive when the ΣFIC is >0.5 to <1, additive with the ΣFIC is 1−<2, and antagonistic when the ΣFIC is ≥2.
Up to seven carbapenem-resistant isolates were assessed. […] See Clinical and Laboratory Standards Institute (CLSI), CLSI. […] M100 Performance Standards for Antimicrobial Susceptibility Testing; 29th Edition. Clinical and Laboratory Standards Institute, Wayne, Pa.

[6] = HEPES buffer, ‡ indicates bactericidal activity

B1: GN123: Native lysin, GenBank YP_009217242.1, SEQ ID NO: 27 (protein)
chain: MTLLKKGDKGDAVKQLQQKLKDLGYTLGVDGNFGNGTDTVVRSFQTKMKLSVDGVVGNGTMSTIDSTLAGIKAWKTSVPFPATNKSRAMAMPTLTEIGRLTNVDPKLLATFCSIESAFDYTAKPYKPDGTVYSSAEGWFQFLDATWDDEVRKHGKQYSFPVDPGRSLRKDPRANGLMGAEFLKGNAAILRPVLGHEPSDTDLYLAHFMGAGGAKQFLMADQNKLAAELFPGPAKANPNIFYKSGNIARTLAEVYAVLDAKVAKHRA
modifications: Pseudomonas phage PhiPA3
In the case of B1, the “MIC (μg/mL) in CAA” value (P. aeruginosa [1]; CAA media) is reported as 2 µg/mL, the “MIC (μg/mL in CAA/HuS)” value (P. aeruginosa [1]; CAA supplemented with 25% human serum) is reported as 128 µg/mL and the “MBEC” value [2] is reported as 4 µg/mL. For the same molecule, the hemolytic activity (human erythrocytes) was “no hemolytic activity whatsoever”, the “bactericidal activity in the time-kill assay format” value (P. aeruginosa [3]; 3-hour timepoint, 10 μg/mL, in either CAA/HuS or HEPES buffer) was “bactericidal activity” and the “Log10 CFU/mL T = 3 hr” value (P. aeruginosa [3]; CAA/HuS, ‡ indicates bactericidal activity) was <3.7‡ Log10 CFU/mL. The “Log10 CFU/mL T = l hr” value (P. aeruginosa [3]; CAA/HuS) was 6.7 Log10 CFU/mL, the “Log10 CFU/mL T = 3 hr” value (P. aeruginosa [3]; [6]) was <3.7‡ Log10 CFU/mL and the “Log10 CFU/mL T = l hr” value (P. aeruginosa [3]; [6]) was 5.6 Log10 CFU/mL. For the same molecule, the “FICI, Fosfomycin” value ([4]; lysin + fosfomycin) was 0.250, the “FICI, Gentamicin” value ([4]; lysin + gentamicin) was 0.375 and the “FICI, Imipenem” value ([4]; lysin + imipenem) was 0.188. The “FICI, Meropenem” value ([4]; lysin + meropenem) was 0.125, the “FICI, Piperacillin” value ([4]; lysin + piperacillin) was 0.500 and the “GN123 Alone” value ([5]; isolate PA19, MIC of GN123 alone (imipenem checkerboard)) was 8 µg/mL. For the same molecule, the “GN123 Alone” value ([5]; isolate PA19, MIC of GN123 alone (meropenem checkerboard)) was 8 µg/mL, the “GN123 Combination” value ([5]; isolate PA19, MIC of GN123 in combination with imipenem) was 0.125 µg/mL and the “GN123 Combination” value ([5]; isolate PA19, MIC of GN123 in combination with meropenem) was 0.25 µg/mL. The FICI ([5]; isolate PA19, imipenem + GN123) was 0.03, the FICI ([5]; isolate PA19, meropenem + GN123) was 0.046 and the “GN123 Alone” value ([5]; isolate PA20, MIC of GN123 alone (imipenem checkerboard)) was 16 µg/mL. The “GN123 Alone” value ([5]; isolate PA20, MIC of GN123 alone (meropenem checkerboard)) was 16 µg/mL, the “GN123 Combination” value ([5]; isolate PA20, MIC of GN123 in combination with imipenem) was 2 µg/mL and the “GN123 Combination” value ([5]; isolate PA20, MIC of GN123 in combination with meropenem) was 1 µg/mL. For the same molecule, the FICI ([5]; isolate PA20, imipenem + GN123) was 0.188, the FICI ([5]; isolate PA20, meropenem + GN123) was 0.094 and the “GN123 Alone” value ([5]; isolate PA21, MIC of GN123 alone (imipenem checkerboard)) was 8 µg/mL. For the same molecule, the “GN123 Alone” value ([5]; isolate PA21, MIC of GN123 alone (meropenem checkerboard)) was 8 µg/mL, the “GN123 Combination” value ([5]; isolate PA21, MIC of GN123 in combination with imipenem) was 1 µg/mL and the “GN123 Combination” value ([5]; isolate PA21, MIC of GN123 in combination with meropenem) was 1 µg/mL. For the same molecule, the FICI ([5]; isolate PA21, imipenem + GN123) was 0.141, the FICI ([5]; isolate PA21, meropenem + GN123) was 0.156 and the “GN123 Alone” value ([5]; isolate PA22, MIC of GN123 alone (imipenem checkerboard)) was 16 µg/mL. For the same molecule, the “GN123 Alone” value ([5]; isolate PA22, MIC of GN123 alone (meropenem checkerboard)) was 16 µg/mL, the “GN123 Combination” value ([5]; isolate PA22, MIC of GN123 in combination with imipenem) was 1 µg/mL and the “GN123 Combination” value ([5]; isolate PA22, MIC of GN123 in combination with meropenem) was 1 µg/mL. For the same molecule, the FICI ([5]; isolate PA22, imipenem + GN123) was 0.188, the FICI ([5]; isolate PA22, meropenem + GN123) was 0.125 and the “GN123 Alone” value ([5]; isolate PA23, MIC of GN123 alone (imipenem checkerboard)) was 8 µg/mL. The “GN123 Alone” value ([5]; isolate PA23, MIC of GN123 alone (meropenem checkerboard)) was 8 µg/mL, the “GN123 Combination” value ([5]; isolate PA23, MIC of GN123 in combination with imipenem) was 2 µg/mL and the “GN123 Combination” value ([5]; isolate PA23, MIC of GN123 in combination with meropenem) was 1 µg/mL. For the same molecule, the FICI ([5]; isolate PA23, imipenem + GN123) was 0.281, the FICI ([5]; isolate PA23, meropenem + GN123) was 0.156 and the “GN123 Alone” value ([5]; isolate PA24, MIC of GN123 alone (imipenem checkerboard)) was 16 µg/mL. For the same molecule, the “GN123 Alone” value ([5]; isolate PA24, MIC of GN123 alone (meropenem checkerboard)) was 16 µg/mL, the “GN123 Combination” value ([5]; isolate PA24, MIC of GN123 in combination with imipenem) was 2 µg/mL and the “GN123 Combination” value ([5]; isolate PA24, MIC of GN123 in combination with meropenem) was 0.5 µg/mL. For the same molecule, the FICI ([5]; isolate PA24, imipenem + GN123) was 0.188, the FICI ([5]; isolate PA24, meropenem + GN123) was 0.094 and the “GN123 Alone” value ([5]; isolate WC-452, MIC of GN123 alone (imipenem checkerboard)) was 16 µg/mL. For the same molecule, the “GN123 Alone” value ([5]; isolate WC-452, MIC of GN123 alone (meropenem checkerboard)) was 16 µg/mL, the “GN123 Combination” value ([5]; isolate WC-452, MIC of GN123 in combination with imipenem) was 2 µg/mL and the “GN123 Combination” value ([5]; isolate WC-452, MIC of GN123 in combination with meropenem) was 1 µg/mL. The FICI ([5]; isolate WC-452, imipenem + GN123) was 0.188, the FICI ([5]; isolate WC-452, meropenem + GN123) was 0.125 and the “resensitization of carbapenem-resistant isolates to IPM and MEM” value ([5]; synergistic combinations with imipenem or meropenem, breakpoints ≤2 sensitive, 4 intermediate, ≥8 resistant) was “reductions of IPM and MEM MICS to below breakpoint values”.
